Where “and” joins values, the source holds several entries; their conditions need not be identical. Equal entries are not always repeated.
Target: RBD-iFcv1 (SARS-CoV-2; human, 23 residues replaced …)

B1: His-tagged CD64 (Acrobiosystems, FCA-H52H1) (receptor)
chain: QVDTTKAVITLQPPWVSVFQEETVTLHCEVLHLPGSSSTQWFLNGTATQTSTPSYRITSASVNDSGEYRCQRGLSGRSDPIQLEIHRGWLLLQVSSRVFTEGEPLALRCHAWKDKLVYNVLYYRNGKAFKFFHWNSNLTILKTNISHNGTYHCSGMGKHRYTSAGISVTVKELFPAPVLNASVTSPLLEGNLVTLSCETKLLLQRPGLQLYFSFYMGSKTLRGRNTSSEYQILTARREDSGLYWCEAATEDGNVLKRSPELELQVLGLQLPTP
B1 was tested, and the Kd was 2.34 nM and 1.61 nM and 0.963 nM and the kon was 260000 M⁻¹ s⁻¹ and 189000 M⁻¹ s⁻¹ and 200000 M⁻¹ s⁻¹.

— patent US20230310584A1 (published 2023)
